Consider one molecule from US20210338838A1 (UNIVERSITY OF UTAH RESEARCH FOUNDATION, published 2021).

The Kd is the equilibrium constant for the complex coming apart.

What all share (assay): plate-based binding assay, His-tagged recombinant protein from HEK293 cells
Assay [1] deals with T1, eCFHT-SE (engineered truncated CFH, I62-Y402, ending in SESFTL) (human, UniProt P08603 19-445).
T1 construct: The chain is built from the first 445 residues shared by CFH and CFHT, less the 18-residue signal peptide, plus the printed C-terminal SESFTL; His-tagged and purified from HEK293 cells; also called protective eCFHT-SE; truncated product of eCFH/T v4.3
T1 sequence (P08603 other isoform, or with tags, fused parts or gaps): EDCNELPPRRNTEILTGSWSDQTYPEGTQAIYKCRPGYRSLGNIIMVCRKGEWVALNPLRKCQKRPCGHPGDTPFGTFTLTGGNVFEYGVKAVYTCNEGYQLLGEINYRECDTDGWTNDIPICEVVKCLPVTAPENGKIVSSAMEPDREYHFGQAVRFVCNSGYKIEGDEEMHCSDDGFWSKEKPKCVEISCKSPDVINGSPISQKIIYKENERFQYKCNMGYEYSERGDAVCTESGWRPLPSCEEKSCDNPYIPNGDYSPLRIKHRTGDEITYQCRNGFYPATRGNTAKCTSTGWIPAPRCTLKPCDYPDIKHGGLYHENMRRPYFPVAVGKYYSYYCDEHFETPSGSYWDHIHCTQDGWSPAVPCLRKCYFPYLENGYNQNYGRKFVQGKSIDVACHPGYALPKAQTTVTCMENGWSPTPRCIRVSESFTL

In assay [2] the target is T2, protective CFHT-I62-Y402 (truncated complement factor H ending in SFTL) (human, UniProt P08603 19-445).
T2 construct: In the Western blot it was expressed in RPE1 cells from pCTM134 and from eCFH/T v4.1; also called CFHT-Protection; native protective CFHT
T2 sequence (P08603 other isoform, or with tags, fused parts or gaps): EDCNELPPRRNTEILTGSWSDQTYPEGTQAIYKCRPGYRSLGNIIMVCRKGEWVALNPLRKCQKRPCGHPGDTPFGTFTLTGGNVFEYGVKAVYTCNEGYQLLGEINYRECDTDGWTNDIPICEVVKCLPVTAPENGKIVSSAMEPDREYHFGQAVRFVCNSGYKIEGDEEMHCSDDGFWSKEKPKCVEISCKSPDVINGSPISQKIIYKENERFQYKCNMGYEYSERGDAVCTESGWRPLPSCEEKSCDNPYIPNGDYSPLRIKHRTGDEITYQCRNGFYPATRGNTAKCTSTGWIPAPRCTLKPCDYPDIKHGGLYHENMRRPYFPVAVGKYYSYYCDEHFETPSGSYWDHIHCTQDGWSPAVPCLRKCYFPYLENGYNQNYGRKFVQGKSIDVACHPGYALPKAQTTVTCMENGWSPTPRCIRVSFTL

Assay [3] concerns the target T3, eCFHT-SK (engineered truncated CFH, I62-Y402, ending in SKSFTL) (human, UniProt P08603 19-445).
T3 construct: Non-natural variant of human CFHT with SK inserted before the C-terminal SFTL; In the Western blot it was expressed from eCFH/T v4.2 in RPE1 cells; also called protective eCFHT-SK; truncated product of eCFH/T v4.2

In assay [4] the target is T4, protective CFH-I62-Y402-E936 (full-length complement factor H) (human, UniProt P08603 19-1231).
T4 construct: In the Western blot it was expressed in RPE1 cells from plasmid pCTM133; also called CFH-Protection
T4 sequence (P08603 19-1231 V62I): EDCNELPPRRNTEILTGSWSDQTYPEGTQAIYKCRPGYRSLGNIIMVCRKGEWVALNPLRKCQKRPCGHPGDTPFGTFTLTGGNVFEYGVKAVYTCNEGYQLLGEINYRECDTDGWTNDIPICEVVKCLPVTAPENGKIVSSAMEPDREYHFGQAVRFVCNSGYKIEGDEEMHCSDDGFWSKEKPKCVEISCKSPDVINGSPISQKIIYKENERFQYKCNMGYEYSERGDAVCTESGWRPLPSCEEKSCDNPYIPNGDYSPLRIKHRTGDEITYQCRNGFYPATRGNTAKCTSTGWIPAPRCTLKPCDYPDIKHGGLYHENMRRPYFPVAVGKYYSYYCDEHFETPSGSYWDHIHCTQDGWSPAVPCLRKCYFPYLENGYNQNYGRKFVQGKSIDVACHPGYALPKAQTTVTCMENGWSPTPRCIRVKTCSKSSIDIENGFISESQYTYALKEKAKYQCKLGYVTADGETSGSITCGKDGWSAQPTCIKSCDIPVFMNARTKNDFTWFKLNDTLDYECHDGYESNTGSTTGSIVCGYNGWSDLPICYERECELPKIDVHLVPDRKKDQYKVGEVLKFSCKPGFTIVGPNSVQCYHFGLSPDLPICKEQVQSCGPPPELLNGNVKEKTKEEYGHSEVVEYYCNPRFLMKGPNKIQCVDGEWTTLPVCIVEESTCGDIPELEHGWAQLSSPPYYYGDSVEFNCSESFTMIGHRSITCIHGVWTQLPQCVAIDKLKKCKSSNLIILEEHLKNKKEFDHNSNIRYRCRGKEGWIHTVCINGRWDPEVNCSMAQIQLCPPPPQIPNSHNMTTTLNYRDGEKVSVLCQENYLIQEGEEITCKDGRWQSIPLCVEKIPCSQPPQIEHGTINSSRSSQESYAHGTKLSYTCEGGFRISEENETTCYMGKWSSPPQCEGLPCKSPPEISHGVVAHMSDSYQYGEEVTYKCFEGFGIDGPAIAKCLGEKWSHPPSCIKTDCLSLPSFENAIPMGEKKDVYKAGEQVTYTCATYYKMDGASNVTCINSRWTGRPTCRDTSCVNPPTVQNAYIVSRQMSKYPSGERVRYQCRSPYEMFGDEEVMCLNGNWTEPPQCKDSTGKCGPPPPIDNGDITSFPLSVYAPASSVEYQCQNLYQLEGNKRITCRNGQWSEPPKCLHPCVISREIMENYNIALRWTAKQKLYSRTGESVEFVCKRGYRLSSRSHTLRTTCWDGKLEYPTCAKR

T3 sequence (P08603 other isoform, or with tags, fused parts or gaps): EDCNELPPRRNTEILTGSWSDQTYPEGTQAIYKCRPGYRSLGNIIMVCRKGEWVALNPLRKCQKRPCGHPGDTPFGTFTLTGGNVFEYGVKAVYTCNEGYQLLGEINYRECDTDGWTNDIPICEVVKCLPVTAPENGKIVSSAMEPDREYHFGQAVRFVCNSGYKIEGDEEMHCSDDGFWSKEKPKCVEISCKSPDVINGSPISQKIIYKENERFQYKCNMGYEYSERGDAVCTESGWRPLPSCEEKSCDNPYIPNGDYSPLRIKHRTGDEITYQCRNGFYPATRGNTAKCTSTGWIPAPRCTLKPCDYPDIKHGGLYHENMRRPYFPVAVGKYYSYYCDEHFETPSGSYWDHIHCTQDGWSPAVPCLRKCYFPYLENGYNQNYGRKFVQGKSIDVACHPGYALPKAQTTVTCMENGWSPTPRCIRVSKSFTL

B1: monomeric C-reactive protein (CRP) (other, UniProt P02741 19-224, looked up)
chain: QTDMSRKAFVFPKESDTSYVSLKAPLTKPLKAFTVCLHFYTELSSTRGYSIFSYATKRQDNEILIFWSKDIGYSFTVGGSEILFEVPEVTVAPVHICTSWESASGIVEFWVDGKPRVRKSLKKGYTVGAEASIILGQEQDSFGGNFEGSQSLVGDIGNVNMWDFVLSPDEINTIYLGGPFSPNVLNWRALKYEVQGEVFTKPQLWP
Turning to B1, the Kd is 0.0253 µM in assay [1], 0.0143 µM in assay [2], 0.0137 µM in assay [3] and 0.127 µM in assay [4].
